Consider 14 molecules from patent US20120184020A1, “ENGINEERED MICROORGANISMS WITH ENHANCED FERMENTATION ACTIVITY” (Verdezyne, Inc., priority 2009, published 2012).

The test system of data set [1] is engineered yeast (S. cerevisiae). In words: Heterologous xylose isomerase expression in yeast (active yes/no). The note with it: xylose isomerase of donor organism expressed in engineered yeast (S. cerevisiae). The format is cell-based.
Data set [2] can be described thus: Xylose isomerase activity/kinetic assay on soluble whole cell extract (sorbitol dehydrogenase coupled, NADH, A340). The format is biochemical. On the procedure:
[…] Louis, Mo.), and about 2 U sorbitol dehydrogenase (Roche) at about 30° C. […] A Beckman DU-800 was utilized with an Enzyme Mechanism software package (Beckman Coulter, Inc.), and the change in the A340 was monitored for 2-3 minutes.
[…] Louis, Mo.), and 2 U Sorbitol Dehydrogenase (SDH) (Roche, Indianapolis, Ind.) at about 30° C. […] A Beckman DU-800 spectrophotometer was utilized with an Enzyme Mechanism software package (Beckman Coulter, Inc, Brea, Calif.), and the change in the A340 was monitored for 2-3 minutes.
[…] Louis, Mo.), and 2 U sorbitol dehydrogenase (SDH) (Roche, Indianapolis, Ind.) at about 30° C. […] A Beckman DU-800 spectrophotometer was utilized with an Enzyme Mechanism software package (Beckman Coulter, Inc, Brea, Calif.), and the change in the A340 was monitored for 2-3 minutes.
Approximately 20 μg of soluble whole cell extract from each transformed cell line was prepared using Y-PER plus reagent as described above was incubated in a solution containing about 100 mM Tris, pH 7.5, 10 mM MgCl ? 2, 0.15 mM NADH (Sigma, St. Louis, Mo.), and 2 U Sorbitol Dehydrogenase (SDH) (Roche, Indianapolis, Ind.) at about 30° C. […] A Beckman DU-800 spectrophotometer was utilized with an Enzyme Mechanism software package (Beckman Coulter, Inc, Brea, Calif.), and the change in the A340 was monitored for 2-3 minutes.

For “Actinoplanes missouriensis: xylose isomerase from donor organism Actinoplanes missouriensis”, the “Active? (yes/no)” value in data set [1] is reported as “No”.
Consider “Bacteroides thetaiotaomicron: xylose isomerase from donor organism Bacteroides thetaiotaomicron”, for which the “Active? (yes/no)” value in data set [1] is reported as “Yes”.
The same measure, in the same setting: under “Streptomyces diastaticus subsp diastaticus: xylose isomerase from donor organism Streptomyces diastaticus subsp diastaticus” stands “No”; under “Streptomyces rubiginosus: xylose isomerase from donor organism Streptomyces rubiginosus”, “No”.
As for “Thermus thermophilus: xylose isomerase from donor organism Thermus thermophilus”, the “Active? (yes/no)” value in data set [1] is “Yes”.

B1: Clostridium thermosulfurogenes: xylose isomerase from donor organism Clostridium thermosulfurogenes (protein, UniProt P19148 1-439, looked up)
Xylose isomerase: MNKYFENVSKIKYEGPKSNNPYSFKFYNPEEVIDGKTMEEHLRFSIAYWHTFTADGTDQFGKATMQRPWNHYTDPMDIAKARVEAAFEFFDKINAPYFCFHDRDIAPEGDTLRETNKNLDTIVAMIKDYLKTSKTKVLWGTANLFSNPRFVHGASTSCNADVFAYSAAQVKKALEITKELGGENYVFWGGREGYETLLNTDMEFELDNFARFLHMAVDYAKEIGFEGQFLIEPKPKEPTKHQYDFDVANVLAFLRKYDLDKYFKVNIEANHATLAFHDFQHELRYARINGVLGSIDANTGDMLLGWDTDQFPTDIRMTTLAMYEVIKMGGFDKGGLNFDAKVRRASFEPEDLFLGHIAGMDAFAKGFKVAYKLVKDRVFDKFIEERYASYKDGIGADIVSGKADFRSLEKYALERSQIVNKSGRQELLESILNQYLFAE
B1: in data set [1], the “Active? (yes/no)” value is “No”.

B2: Bacillus subtilis: xylose isomerase from donor organism Bacillus subtilis (protein, UniProt P0CI80 1-445, looked up)
Xylose isomerase: MAQSHSSSINYFGSANKVVYEGKDSTNPLAFKYYNPQEVIGGKTLKEHLRFSIAYWHTFTADGTDVFGAATMQRPWDHYKGMDLAKMRVEAAFEMFEKLDAPFFAFHDRDIAPEGSTLKETNQNLDMIMGMIKDYMRNSGVKLLWNTANMFTNPRFVHGAATSCNADVFAYAAAQVKKGLETAKELGAENYVFWGGREGYETLLNTDLKFELDNLARFMHMAVDYAKEIGYTGQFLIEPKPKEPTTHQYDTDAATTIAFLKQYGLDNHFKLNLEANHATLAGHTFEHELRMARVHGLLGSVDANQGHPLLGWDTDEFPTDLYSTTLAMYEILQNGGLGSGGLNFDAKVRRSSFEPDDLIYAHIAGMDAFARGLKVAHKLIEDRVFEDVIQHRYRSFTEGIGLEIIEGRANFHTLEQYALNHKSIKNESGRQEKLKAILNQYILEV
For the molecule B2, in data set [1], the “Active? (yes/no)” value is “No”.

B3: Escherichia coli: xylose isomerase from donor organism Escherichia coli (protein, listed as Escherichia coli)
chain: MQAYFDQLDRVRYEGSKSSNPLAFRHYNPDELVLGKRMEEHLRFAACYWHTFCWNGADMFGVGAFNRPWQQPGEALALAKRKADVAFEFFHKLHVPFYCFHDVDVSPEGASLKEYINNFAQMVDVLAGKQEESGVKLLWGTANCFTNPRYGA
Take B3: the “Active? (yes/no)” value in data set [1] is “No”.

B4: Clostridium phytofermentans: xylose isomerase from donor organism Clostridium phytofermentans (protein)
chain: MKNYFPNVPEVKYEGPNSTNPFAFKYYDANKVVAGKTMKEHCRFALSWWHTLCAGGADPFGVTTMDRTYGNITDPMELAKAKVDAGFELMTKLGIEFFCFHDADIAPEGDTFEESKKNLFEIVDYIKEKMDQTGIKLLWGTANNFSHPRFMH
modifications: Clostridium phytofermentans
As to B4, in data set [1], the “Active? (yes/no)” value is given as “Yes”.

B5: Psudomonas savastanoi: xylose isomerase from donor organism Psudomonas savastanoi (protein, UniProt Q48J73 1-438, looked up)
Xylose isomerase: MPYFPAVDKVRYEGPDSDSPLAFRHYDADKLILGKPMREHLRMAACYWHTFVWPGADMFGVGTFKRPWQGSGDPLELAIGKAETAFEFFSKLGIDYYSFHDTDVAPEGSSLKEYRNNFAQMIDQLERHQEQTGIKLLWGTANCFSNPRFAAGAASNPDPEVFAYAATQVFSAMNATQRLKGANYVLWGGREGYETLLNTDLRQEREQLGRFMRMVVEHKHKIGFKGDLLIEPKPQEPTKHQYDYDSATVFGFLQQYGLEKEIKVNIEANHATLAGHSFHHEIATAVSLGIFGSIDANRGDPQNGWDTDQFPNSVEEMTLATYEILKAGGFTNGGYNFDSKVRRQSLDEVDLFHGHVAAMDVLALALERAAAMVQNDKLQQFKDQRYAGWQQPFGKSLLAGEFSLESLAKHAFDKDLNPQAVSGRQELLEGVVNRFIYF
As to B5, in data set [1], the “Active? (yes/no)” value is reported as “No”.

B6: Bacillus licheniformis: xylose isomerase from donor organism Bacillus licheniformis (protein, UniProt P77832 1-448, looked up)
Xylose isomerase: MFFRNIGMIEYEGADSENPYAFKYYNPDEFVGGKTMKEHLRFAVAYWHTFDADGKDPFGDGTMFRAWNRLTHPLDKAKARAEAAFEFFEKLGVPYFCFHDVDIVDEGATLRETFTYLDQMSSFLKEMMETSHVQLLWNTANMFTHPRYVHGAATSCNADVYAYAAAKVKKGLDIAKELGAENYVFWGGREGYETLLNTDMKLELENLSSFYRMAVEYAREIGFDGQFLIEPKPKEPTKHQYDFDAATTIAFLETYGLKDHFKLNLEANHATLAGHTFEHELRVAALHDMLGSIDANQGDLLLGWDTDEFPTDLYSAVLAMYEILKAGGFKTGGINFDAKVRRPSFADEDLFHAHIAGMDTYAVGLKVASRLLEDKALDQVIEERYESYTKGIGLEIKEGRTDLKKLAAYALENDHIENQSGRQERLKATVNRYLLNALREAPAGKETH
On to B6, for which the “Active? (yes/no)” value in data set [1] is on record as “No”.

B7: Staphylococcus xylosus: xylose isomerase from donor organism Staphylococcus xylosus (protein, UniProt P27157 1-439, looked up)
Xylose isomerase: MSYFDINKVNYEGPKSNNAFSFKYYNPEEKLGNHSMSELLRFSVAYWHTFTADLSDPFGVGVAERDWDSLDEMEKAKARVEAIFEFMEKTRIDYFCFHDVDISPEGASLKESNENLDIIVELIKEKMDQTGKKLLWNTTNNFTHERFVHGAATSSNAEVFAYAAAKVKKSLEIAKKLGSENFVFWGGREGYESLLNTNMKLELDNLATFFKMAKSYADEIGYTGQFLIEPKPKEPTTHQYDTDVATAHAFLQKYDLDKDFKFNIEANHATLAGHTFQHELRYARDNNMLGSVDANQGHPLLGWDTDESTDVYDTTLAMYEILKNGGLAPGGLNFDAKPRRTSFKQEDLILTHIAGMDTFALGLRVAYKMIEDNFFENIMDEKYKSFNEGIGKKIVEGETSLKELEDYAFNINTINNTSDHLEVIKSQINQYILNINNKD
As to B7, the “Active? (yes/no)” value in data set [1] was “No”.

B8: R. flavefaciens, FD-1 XI: xylose isomerase of Ruminococcus flavefaciens FD1, ZP_06143883.1, SEQ ID NO: 110 (protein, listed as Ruminococcus flavefaciens)
chain: MEFFKNISKIPYEGKDSTNPLAFKYYNPDEVIDGKKMRDIMKFALSWWHTMGGDGTDMFGCGTADKTWGENDPAARAKAKVDAAFEIMQKLSIDYFCFHDRDLSPEYGSLKDTNAQLDIVTDYIKAKQAETGLKCLWGTAKCFDHPRFMHGAGTSPSADVFAFSAAQIKKALESTVKLGGTGYVFWGGREGYETLLNTNMGLELDNMARLMKMAVEYGRSIGFKGDFYIEPKPKEPTKHQYDFDTATVLGFLRKYGLDKDFKMNIEANHATLAQHTFQHELCVARTNGAFGSIDANQGDPLLGWDTDQFPTNIYDTTMCMYEVIKAGGFTNGGLNFDAKARRGSFTPEDIFYSYIAGMDAFALGYKAASKLIADGRIDSFISDRYASWSEGIGLDIISGKADMAALEKYALEKGEVTDSISSGRQELLESIVNNVIFNL
As to B8, in data set [2] (500 mM xylose, 100 μg total soluble crude extract, expressed in S. cerevisiae), the “activity (slope) at saturating xylose (FIG. 25)” value is “highest activity of the candidates tested”. Also, the “specific activity relative to native XI control activity” value in data set [2] (xylose concentrations between 40 and 500 nM (so in the source)) is given as “greater than 2 fold”.

B9: Arabidopsis thaliana: xylose isomerase from donor organism Arabidopsis thaliana (protein, UniProt Q9FKK7 1-477, looked up)
Xylose isomerase: MKKVEFFMLLLCFIAASSLVSADPPTCPADLGGKCSDSDDWQGDFFPEIPKIKYEGPSSKNPLAYRWYNAEEEILGKKMKDWFRFSVAFWHTFRGTGGDPFGAATKYWPWEDGTNSVSMAKRRMRANFEFLKKLGVDWWCFHDRDIAPDGTTLEESNKNLDEVIELAKELQKGSKIKPLWGTAQLFLHPRYMHGGATSSEVGVYAYAAAQVKKAMEVTHYLGGENYVFWGGREGYQTLLNTDMGRELDHLARFFEAAVAYKKKIGFKGTLLIEPKPQEPTKHQYDWDAATAANFLRKYGLIDEFKLNIECNHATLSGHTCHHELETARINGLLGNIDANTGDAQTGWDTDQFLTDVGEATMVMMSVIKNGGIAPGGFNFDAKLRRESTDVEDLFIAHISGMDTMARGLRNAVKILEEGSLSELVRKRYATWDSELGKQIEEGKADFEYLEKKAKEFGEPKVSSAKQELAEMIFQSAM
In the case of B9, in data set [1], the “Active? (yes/no)” value is “No”.
